{"source": "patent US20100040633A1", "about": "(published 2010)", "binders": {"B1": {"name": "mAb 21D1 (antibody, human IgG4 S228P, kappa, V domains shown)", "VH": "QVQLVQSGAEVKKPGASVKVSCKASGYTFTDYNIHWVRQAPGQGLEWMGYIYPYDGETGYNQKFKSRVTMTTDTSTSTAYMELRSLRSDDTAVYYCARGYRWFAYWGQGTLVTVSS", "VL": "DIQMTQSPSSLSASVGDRVTITCRASSSVPYMHWFQQKPGKAPKSLIYATSNPAYGVPSRFSGSGSGTDFTLTISSLQPEDFATYYCQQWDLNPPAFGQGTKLEIKR", "notes": "Full-length IgG4 antibody; also called LA307-21D1"}, "B2": {"name": "mAb DM4 (antibody, human IgG4 S228P, kappa, V domains shown)", "VH": "QVQLVQSGAEVKKPGASVKVSCKASGYDFTDYNIHWVRQAPGQGLEWMGYIYPYDGETGYNQKFKSRVTMTTDTSTSTAYMELRSLRSDDTAVYYCARGYRWLAYWGQGTLVTVSS", "VL": "DIQMTQSPSSLSASVGDRVTITCRASSSVSYMHWYQQKPGKAPKPLIYATSNLAYGVPSRFSGSGSGTDFTLTISSLQPEDFATYYCQQWDLNPPAFGQGTKLEIKR", "notes": "Full-length IgG4 antibody; also called LA307-DM4"}, "B3": {"name": "mAb 23A3 (antibody, V domains shown)", "VH": "QVQLVQSGAEVKKPGASVKVSCKASGYDFTDYNMVWVRQAPGQGLEWMGSIYPYDGETGYNQKFKSRVTMTTDTSTSTAYMELRSLRSDDTAVYYCARGYRAFEYWGQGTLVTVSS", "VL": "DIQMTQSPSSLSASVGDRVTITCRASSSVPYMHWYQQKPGKAPKLLIYATSNPAYGVPSRFSGSGSGTDFTLTISSLQPEDFATYYCQQWDLNPPAFGQGTKLEIK"}, "B4": {"name": "mAb DM7 (antibody, V domains shown)", "VH": "QVQLVQSGAEVKKPGASVKVSCKASGYDFTDYNMHWVRQAPGQGLEWMGYIYPYDGETGYNQKFKSRVTMTTDTSTSTAYMELRSLRSDDTAVYYCARGYRWLYYWGQGTLVTVSS", "VL": "DIQMTQSPSSLSASVGDRVTITCRASSSVSYMHWYQQKPGKAPKPLIYATSNLAKGVPSRFSGSGSGTDFTLTISSLQPEDFATYYCQQWDLNPPAFGQGTKLEIK"}}, "target": "T1, TGF-beta 3 (human, UniProt P10600 301-412)", "T1 construct": "Bought protein; also called TGF-β3", "T1 sequence (looked up)": "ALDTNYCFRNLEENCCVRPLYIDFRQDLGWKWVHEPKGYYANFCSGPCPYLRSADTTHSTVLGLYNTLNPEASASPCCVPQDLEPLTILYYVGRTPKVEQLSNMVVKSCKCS", "assay": "ratio of Biacore Kd for TGF-β3 to Kd for TGF-β1", "procedure": "Affinities of binding composition mAbs for TGF-β3 are determined using BIAcore methods. All measurements are performed at room temperature. Samples are dissolved in HBS-EP buffer (150 mM sodium chloride, 3 mM EDTA, 0.01% (w/v) surfactant P-20, and 10 mM HEPES, pH 7.4). Recombinant Protein A is immobilized on four flow cells of a CM4 sensor chip at a level of 400-450 response units (RUs) using an amine coupling kit. Binding is evaluated over multiple analytical cycles. Each cycle is performed at a flow rate of 100 μL/minute consisting of the following steps: injection of 15 μL of an antibody binding composition at 0.5 μg/mL, injection of 250 μL of TGF-β3 (starting at 5 nM and using two-fold serial dilutions to […] for each cycle, with two injections for each concentration) followed by a short (5 minutes) delay for dissociation, and regeneration using two injections of 50 μL of 10 mM glycine hydrochloride, pH 1.5.\nAffinities are determined based upon the equilibrium signal as reached at varying TGF-β3 concentrations by measuring the average signal during the last 10 seconds of the TGF-β3 injections, and then fitting the resulting signals at all of the TGF-β3 concentrations to a simple binding equilibrium model in SCRUBBER (Center for Biomolecular Interaction Analysis, Univ. of Utah). Model data determined for tested human mab composition of the invention of Kd and specificity calculated by dividing the Kd for TGF-β3 binding by the Kd for TGF-β1 binding (herein) is shown below in Table 5."}
{"binder": "B1", "values": [{"measurement": "Specificity (Kd, β3/Kd, β1)", "value": 9800}]}
{"binder": "B2", "values": [{"measurement": "Specificity (Kd, β3/Kd, β1)", "value": 621}]}
{"binder": "B3", "values": [{"measurement": "Specificity (Kd, β3/Kd, β1)", "value": 1050}]}
{"binder": "B4", "values": [{"measurement": "Specificity (Kd, β3/Kd, β1)", "value": 2320}]}
